Test results taken from the nanobody polyreactivity screen of Harvey et al. (2022).

assay: yeast display, Sf9 membrane polyspecificity reagent, FACS + sequencing; frameworks hold sequencing errors
Procedure, shortened: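 Genes from sorted yeast were amplified by colony PCR, read by MiSeq 2 × 250 sequencing and filtered on CDR length. These cells carried a synthetic nanobody library in Saccharomyces cerevisiae BJ5465 and were sorted by FACS into low and high (top ~1%) gates on anti-HA and streptavidin fluorescence. Polyreactivity is labelled according to the gate of origin.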

| Sequence | polyreactivity (PSR sort gate) |
| --- | --- |
| QVQLVESGGGLVQAGGSLRLSCAASGSILGINVMGWYRQAPGKERELVAAISRRGGSTYYADSVKGRFTISRDNAKNTVYLQMNSLKPEDTAVYYCAATRTARTMGYCGQGTQVTVSS | high polyreactivity |
| QVQLVESGGGLVQAGGSLRLSCAASGSILGLNAMGWYRQAPGKERELVAAITSRGGSTYYADSVKGRFTISRDNAKNTVYLQMNSLKPEDTAVYYCNREYVRVNYQYWYYAEYDYWGQGTQVTVSS | low polyreactivity |
| QVQLVESGGGLVQAGGSLRLSCAASGSILGLNVMGWYRQAPGTEREVVAAISRRGGSTYYADSVKGRFTISRDNAKNTVYLQMNSLKPEDTAVYYCAATRTARTMGYWGQGTQVTVSS | high polyreactivity |
| QVQLVESGGGLVQAGGSLRLSCAASGSILGLYAMGWYRQAPEKDRELVAASTWSGGSTYYADSVKGRFTISRDNAKNTVYLQMNSLKPEDTAVYYCAALARGYWVVNSLGSYDYWGQGTQVTVSS | high polyreactivity |
| QVQLVESGGGLVQAGGSLRLSCAASGSILGLYAMGWYRQAPGKERELVAAITYRGGRTDYADSVKGRFTISRDNAKNTVYLQMNSLKPEDTAVYYCAAGYLPRPRYSTSYLYYYWGQGTQVTVSS | high polyreactivity |
| QVQLVESGGGLVQAGGSLRLSCAASGSILGLYAMGWYRQAPGKERELVASITSSGSTYYADSVKGRFTISRDNAKNTVYLQMNSLKPEDTAVYYCAARYYYGRRYDYWGQGTQVTVSS | low polyreactivity |
| QVQLVESGGGLVQAGGSLRLSCAASGSILGVYTMGWDRQAPGKERELVAAITSSSSSTYADSVKGRFTISRDNAKNTVYLQMNSVIPEDTAVYYCATRGWSKQLYGGYTQYYYWGQGTQVTVSS | high polyreactivity |
| QVQLVESGGGLVQAGGSLRLSCAASGSILGYNAMGWYRQAPGKEREFVAAITYSGGTTYYADSVKGRFTISRDNAKNTVYLQMNSLKPEDTAVYYCAADYSVYDEFDYWGQGTQVTVSS | high polyreactivity |
| QVQLVESGGGLVQAGGSLRLSCAASGSILGYYAMGWYRQAPGKERELVAAISSGGSTNYADSVKGRFTISRDNAKNTVYLQMNSLKPEDTAVYYCAAGVTWPYRYVWYDYWGQGTQVTVSS | low polyreactivity |
| QVQLVESGGGLVQAGGSLRLSCAASGSILGYYVMGWYRQAPGKERELVAAISWSSGSTYYADSVKGRFTISRDNAKNTVYLQLNSLKPEDTAVYYCNASNVYFWFVTLEFDSWGQGTQVTVSS | low polyreactivity |
| QVQLVESGGGLVQAGGSLRLSCAASGSILIWNTMGWDRQAPGKDRELVAAISSGGSTYYADSVKGRFTISRDNAKNTVYLQMNSLKPEDTAVYYCNVDLPRVLTDDSWGQGTHVTVSS | low polyreactivity |
| QVQLVESGGGLVQAGGSLRLSCAASGSILKSYAMGWYRQAPGKERELVAAITYRDGSTYYADSVKGRFTISRDNAKNTVYLQMNSLKPEDTAVYYCAAEPSWWNVFYPGYNYWGQGTQVTVSA | high polyreactivity |
| QVQLVESGGGLVQAGGSLRLSCAASGSILKVYAMGWYRQAPGKERELVAGITRSGVRTNYADSVKGRFTISRDNAKNTVYLQMNSLKPEDTAVCYCAAVGYVYRTYWYTRQSTYEYWGQGTQVTVSS | high polyreactivity |
| QVQLVESGGGLVQAGGSLRLSCAASGSILLYYTMGWYRQAPGKERELVASITSGGRTYYADSVKGRFTISRDNAKNTVYLQMNSLKPEDTAVYYCAADVWKLYDYWGQGTQVTVSS | low polyreactivity |
| QVQLVESGGGLVQAGGSLRLSCAASGSILNNYAMGWYRQAPGKERELVAAISSSGGTNYADSVKGRFTISRDNAKNTVYLPMNSLKPVDTAVYYCNADVLDGGYDYWGQGTQVTVSS | low polyreactivity |
| QVQLVESGGGLVQAGGSLRLSCAASGSILPRYAMGWYRQAPGKERELVAAITSGGITSYADSVKGRFTISRDNAKNTVYLQMNSLKPEDTAVYYCAADWYVIYDYWGQGTQVTVSS | low polyreactivity |
| QVQLVESGGGLVQAGGSLRLSCAASGSILPTNAMGWYRPAPGKERELVASITYNGGRTSYADSVKGRFTISRDNAKNTVYLQMNSLKPEDTAVYYCAARVWYQGYKSMGYWGQGTQVTVSS | high polyreactivity |
| QVQLVESGGGLVQAGGSLRLSCAASGSILPYNAMGWYRQAPGKERELVASISRGGGTNYADSVKGRFTISRDNAKNTVYLQMNSLKPEDTAVYYCAARTLRVDYDSHWYSLVDYWGQGTQVTVSS | low polyreactivity |
| QVQLVESGGGLVQAGGSLRLSCAASGSILPYNAMGWYRQAPGKERELVCSSSRGGGTNYADSVKGRFTISRDNAKNTVYLQMNSLKPEDTAVYYCAARTLRVDYDSHWYSLVDYWGQGTQVTVSS | low polyreactivity |
| QVQLVESGGGLVQAGGSLRLSCAASGSILPYYAMGWYRQAPGKERELVAAISDSGGSTYYADSVKGRFTISRDNSKNTVYLQMNILKPEDTAVYYCNAVVRSTAHGYWGQGTQVTVSS | high polyreactivity |
| QVQLVESGGGLVQAGGSLRLSCAASGSILQINPMGWYRPAPAKERDLVAANDWGGGDTYYADSVKGRFTIARDNAKNTVYVQMISLKTEDTAVYYCAAEGVSWYVWDFYDIYGYWGHGTQVTVSS | high polyreactivity |
| QVQLVESGGGLVQAGGSLRLSCAASGSILQRNAMGWYRHARGTERELVAAISWSGDNTYYADSVKGRFTISRDNAKNTVYLQMISLKPEDTAVYYCATDDDIYFQEYDYWGQGTQVTVSA | low polyreactivity |

| Sequence | polyreactivity (PSR sort gate) |
| --- | --- |
| QVQLVESGGGLVQAGGSLRLSCAASGSILRLYVMGWYIQAPGKDRELVADISDRGGSTYYADSVKGRFTISRDNAKNTVYLQMNSLKPEDTAVYYCAAEWGQRGGGGYYYWGQGTQVTVSS | low polyreactivity |
| QVQLVESGGGLVQAGGSLRLSCAASGSILRQYAMGWYRQAPGKERELVATITGDGSTNYADSVKGRFTISRDNAKNTVYLQMNSLKPEDTAVYYCNTALTYPYPNVEDLVYGFKLDYWGQGTQVTVSS | low polyreactivity |
| QVQLVESGGGLVQAGGSLRLSCAASGSILRQYAMGWYRQAPGKERELVATITGDGSTNYADSVKGRFTISRDNAKNTVYLQMNSLKPEDTAVYYCNTYLTYPYPNVEVLVYGFKLDYWGQGTQVTVSS | low polyreactivity |
| QVQLVESGGGLVQAGGSLRLSCAASGSILRSNAMGWYIQAPGKERELVATITNSGGSTYSDSVKGSFTISRDNAKNTVYVQMNSLKPEVTAVYYCAKAGAGESIAKYDYWGQGTQVTVSS | low polyreactivity |
| QVQLVESGGGLVQAGGSLRLSCAASGSILRYYAMGWFRQAPGKERELVAAISYSGGSTYYADSVKGRFTISRDNAKNTVYLQMNSLKPEDTAVYYCNKLYDRGYDYWGQGTQVTVSS | high polyreactivity |
| QVQLVESGGGLVQAGGSLRLSCAASGSILSFNAMGWYRQAPGKERELVAAICRGGSTYYADSVKGRFTISRDNAKNTVYLQMNSLKPEDTAVYYCAVQLRRHVDMDYWGQGTQVTVSS | high polyreactivity |
| QVQLVESGGGLVQAGGSLRLSCAASGSILSYYAMGWYRQAPGKERELVAAISKSGGRTYYADSVKGRFTISRDNAKNTVYLQMNRLKPEDTAVYYCAAPATYKYDYWGQGTQVTVSS | high polyreactivity |
| QVQLVESGGGLVQAGGSLRLSCAASGSILTPYAMGWYRQAPGKERELVAAISWGDGSTYYADSVKGRFTISRDNAKNTVYLQMNSLNPEDNAVYYCAAVSYYGVDQYRITVYTYEYWGQGTQVTVSS | low polyreactivity |
| QVQLVESGGGLVQAGGSLRLSCAASGSILVQSAMGWERQAPGKERELVAAISRGGSTNYADSVKGRFTISRDNPKNTVYLQMNSLKPEDTAVYYCAARRPWGEYYWGQGTQVNVSS | low polyreactivity |
| QVQLVESGGGLVQAGGSLRLSCAASGSILVRYSMGWYRQAPGKERELVAAITSGGSTYADSVKGRFTISRDNAKNTVYLQLNSLNPEDTAVYYCARDYFNREAFDYWGQGTQVTVSS | low polyreactivity |
| QVQLVESGGGLVQAGGSLRLSCAASGSILVSYAMGWYRQAPGKERELVAAITRSGVRTYYADSVKGRFTISRDNAKNSVYLQMNSLKPEDTAVYYCAADTYRSSSPYGYWGQGTQVTVSS | high polyreactivity |
| QVQLVESGGGLVQAGGSLRLSCAASGSILWDNAMGWYRQAPGKERELVATISVSGGGTYYADSVKGRFTISLDNAKNTVYLQMNSLKPEDTSVYYCNARYGNESQGWEDYWGQGTQVTVSS | low polyreactivity |
| QVQLVESGGGLVQAGGSLRLSCAASGSILYFNAMGWYRQAPGKEREFVATIRRSGGSTNYADSVKGRFTISRDNAKNTVYLQMNSVKREDTAVYYCNARLSSGYTSWRYNYWGQGTQVSVSS | high polyreactivity |
| QVQLVESGGGLVQAGGSLRLSCAASGSILYGYAMGWYRQAPGKERELYASITSDGSSNYADSVKGRFTISRDNAKNTVYFQMNSLKPEDTAVYYCAADVRLIWSASLTTSKYDYWGQGTQVTVSS | low polyreactivity |
| QVQLVESGGGLVQAGGSLRLSCAASGSILYINTMGWYRQAPGKERELVAAITYSGGSTYYADSVKGRLTISRDNAKNTVYLQMNRLKPEDTAVYYCAADGYYGGYNYWGQGTQVTVSS | low polyreactivity |
| QVQLVESGGGLVQAGGSLRLSCAASGSILYPTAMGWYTQAPGKEREFVAGITSSGSTYYADSVKGRFTISRDNAKNTVDDQMNSLKPDDTAVYYCATSVYRTYGNSVHRMNYWGQGTQVTVSS | high polyreactivity |
| QVQLVESGGGLVQAGGSLRLSCAASGSILYPYAMGWYRQAPGKEREFVAAITYGGGRTYYADSVKGRFTISRDNEKNTVYLHMNSLKPEDTAVYYCAARYTYSYPLFGSWGQGTQVTVSS | high polyreactivity |
| QVQLVESGGGLVQAGGSLRLSCAASGSILYRNAMGWYRQAPGKERELVAGITRRGGSTYYADSVKGRFTISRDNAKNTVYLQMISLKPEDTAVYYCNVQRARRQRQYGYWGQGTQVTVSS | low polyreactivity |
| QVQLVESGGGLVQAGGSLRLSCAASGSILYTYAMGWYRQAPGKERELVAAISRSGGSTYYADSVKGRFTISRDTAKNTVYLQMNSLKPEDTAVYYCNAVRYLTRLGRYDYWGQGTQVTVSS | high polyreactivity |
| QVQLVESGGGLVQAGGSLRLSCAASGSILYVNAMGWYRQAPGKERELVAVITSGGSTNNADSVKGRFTISRDNAKNTVYLQMNSLKPEDTAVYYCAADPYSVYGGDYWGQGTQVTVSS | low polyreactivity |
| QVQLVESGGGLVQAGGSLRLSCAASGSILYYYAMGWYRQAPGKERELVAAISWSGASTYYADSVKGRFTISRDNAKNTVYLQMNSLIPEDTAVYYCNADYTRDRYVANRYYYWGQGTQVTVSS | high polyreactivity |
